Laboratory results: PMC6901573 (Scientific Reports, 2019)

B1: Human hemoglobin A, oxidized form (methemoglobin, MetHb) (complex)
chain 1: not shown
chain 2: not shown
B2: Human alpha-semihemoglobin, oxidized (met) form (complex)
chain 1: not shown
chain 2: not shown
B3: Human beta-semihemoglobin, oxidized (met) form (complex)
chain 1: not shown
chain 2: not shown

Tests used:
[1] = target: T1, IsdB (NEAT1 and NEAT2 domains connected by the helical linker), wild type (S. aureus, UniProt Q8NX66 125-485); test: SPR; conditions: both partners purified
[2] = target: T1, IsdB (NEAT1 and NEAT2 domains connected …); test: SPR; conditions: both partners purified; remark: listed apart in the source

T1 sequence (Q8NX66 125-485): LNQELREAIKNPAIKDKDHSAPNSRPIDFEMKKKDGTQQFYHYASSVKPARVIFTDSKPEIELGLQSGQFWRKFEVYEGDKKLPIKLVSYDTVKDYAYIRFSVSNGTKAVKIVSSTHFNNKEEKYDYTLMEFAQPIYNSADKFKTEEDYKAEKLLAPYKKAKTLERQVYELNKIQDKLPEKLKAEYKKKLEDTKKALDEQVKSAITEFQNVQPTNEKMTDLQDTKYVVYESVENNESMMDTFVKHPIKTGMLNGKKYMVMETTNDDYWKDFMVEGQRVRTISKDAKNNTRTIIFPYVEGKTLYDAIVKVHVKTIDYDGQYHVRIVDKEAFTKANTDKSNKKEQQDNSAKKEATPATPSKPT

Row | Binder | KD of the first, reversible step of the two-state irreversible model [1] [nM] | KD of the first, reversible step of the two-state irreversible model [2] [nM]
1 | B1 | 69 ± 1 | 70 ± 6
2 | B2 |  | 108 ± 11
3 | B3 |  | 91 ± 5
